Series [1] concerns the target human serum albumin.
Series [2] deals with T1, rabbit serum albumin, P49065.
T1 chain: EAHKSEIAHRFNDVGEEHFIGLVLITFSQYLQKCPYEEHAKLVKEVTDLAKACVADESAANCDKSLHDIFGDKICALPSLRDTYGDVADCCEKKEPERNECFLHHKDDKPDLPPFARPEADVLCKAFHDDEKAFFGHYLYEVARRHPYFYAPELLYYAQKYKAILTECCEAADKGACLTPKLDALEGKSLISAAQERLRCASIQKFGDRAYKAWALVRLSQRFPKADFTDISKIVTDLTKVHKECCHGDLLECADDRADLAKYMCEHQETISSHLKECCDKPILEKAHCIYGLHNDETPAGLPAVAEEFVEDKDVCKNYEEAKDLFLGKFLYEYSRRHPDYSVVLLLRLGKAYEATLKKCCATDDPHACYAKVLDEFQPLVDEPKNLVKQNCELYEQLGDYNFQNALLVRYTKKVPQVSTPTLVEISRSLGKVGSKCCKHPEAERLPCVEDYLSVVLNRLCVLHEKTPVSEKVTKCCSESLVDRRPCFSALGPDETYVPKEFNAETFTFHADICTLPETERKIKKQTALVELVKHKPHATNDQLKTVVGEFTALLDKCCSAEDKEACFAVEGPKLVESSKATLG

The results in this text go back to patent US20220023399.

B1: PlySs2 (CF-301) lysin (protein)
chain: MTTVNEALNNVRAQVGSGVSVGNGECYALASWYERMISPDATVGLGAGVGWVSGAIGDTISAKNIGSSYNWQANGWTVSTSGPFKAGQIVTLGATPGNPYGHVVIVEAVDGDRLTILEQNYGGKRYPVRNYYSAASYRQQVVHYITPPGTVAQSAPNLAGSRSYRETGTMTVTVDALNVRRAPNTSGEIVAVYKRGESFDYDTVIIDVNGYVWVSYIGGSGKRNYVATGATKDGKRFGNAWGTFK
Turning to B1, in series [1], the Fold decrease in CF-301 MIC compared to media alone (delipidated human serum + Oleate 0.625 mg/mL) was determined as 8 fold; the Fold decrease in CF-301 MIC compared to media alone (delipidated human serum + Palmitate 0.625 mg/mL) turned out to be 16 fold; the Fold decrease in CF-301 MIC compared to media alone (delipidated human serum + Palmitate + Oleate) was 16 fold; the Fold decrease in MIC (50% MHB/50% heat-inactivated human serum supplemented with HSA, 40 mg/mL) was found to be 4 fold. Also, in series [1], the Fold decrease in MIC (MHB supplemented with HSA, 40 mg/mL) was found to be 8 fold; the Fold increase in CF-301 specific activity with rHSA, 4% was 17.8 fold; the Specific Activity (Units/mg) of CF-301 in the lytic assay with rHSA, 4% was determined as 43100 Units/mg; the “ΣFICavg (checkerboard, S. aureus, heat-inactivated human serum); HSA fraction V” value is at most 0.086. For the same protein, the “ΣFICavg (checkerboard, S. aureus, heat-inactivated human serum); HSA recombinant” value in series [1] was at most 0.1. In series [2], the Fold decrease in MIC (50% MHB/50% heat-inactivated human serum supplemented with RabSA, 40 mg/mL) was found to be 4 fold; the Fold decrease in MIC (MHB supplemented with RabSA, 40 mg/mL) was determined as 8 fold; the “ΣFICavg (checkerboard, S. aureus, heat-inactivated human serum); rabbit serum albumin from serum” value is on record as at most 0.1.
